The record followed here is patent US20150064134A1.

What all share (assay): cell-based or functional assay
Assay [1] concerns the target AMPKα1(h) (human) (UniProt Q13131).
For assay [2], the target named is Abl(Q252H)(h) (human) (UniProt P00519).
The target in assay [3] is CDK9/cyclin T1(h) (human) (UniProt P50750).
Assay [4] deals with CSK(h) (human) (UniProt P41240).
For assay [5], the target named is EGFR(L861Q)(h) (human) (UniProt P00533).
Assay [6] deals with HIPK1(h) (human) (UniProt Q86Z02).
Assay [7] deals with JNK3(h) (human) (UniProt P53779).
Assay [8] deals with MAPKAP-K2(h) (human) (UniProt P49137).
Assay [9] addresses MAPKAP-K3(h) (human) (UniProt Q16644).
The target in assay [10] is Met(D1246H)(h) (human) (UniProt P08581).
Assay [11] deals with MuSK(h) (human) (UniProt O15146).
Assay [12] deals with T1, NEK11(h) (human) (UniProt Q8NG66).
T1 sequence (looked up): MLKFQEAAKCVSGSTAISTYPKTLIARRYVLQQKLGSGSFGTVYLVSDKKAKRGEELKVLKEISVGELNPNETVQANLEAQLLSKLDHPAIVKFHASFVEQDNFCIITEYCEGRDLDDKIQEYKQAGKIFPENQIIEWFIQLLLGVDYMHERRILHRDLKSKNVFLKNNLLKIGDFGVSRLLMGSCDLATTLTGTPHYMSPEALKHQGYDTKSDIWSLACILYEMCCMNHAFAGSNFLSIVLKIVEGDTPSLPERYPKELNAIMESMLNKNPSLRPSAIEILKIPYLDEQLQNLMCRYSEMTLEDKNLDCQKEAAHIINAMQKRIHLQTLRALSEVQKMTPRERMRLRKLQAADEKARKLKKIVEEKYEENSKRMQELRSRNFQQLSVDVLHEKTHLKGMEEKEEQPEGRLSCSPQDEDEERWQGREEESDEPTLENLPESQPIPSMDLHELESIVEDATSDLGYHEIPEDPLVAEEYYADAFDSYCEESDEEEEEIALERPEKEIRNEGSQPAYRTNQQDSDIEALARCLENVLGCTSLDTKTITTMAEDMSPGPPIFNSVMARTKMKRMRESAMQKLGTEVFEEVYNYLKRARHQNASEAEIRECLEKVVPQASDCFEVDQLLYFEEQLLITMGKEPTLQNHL

Assay [13] concerns the target T2, NEK3(h) (human) (UniProt P51956).
T2 sequence (looked up): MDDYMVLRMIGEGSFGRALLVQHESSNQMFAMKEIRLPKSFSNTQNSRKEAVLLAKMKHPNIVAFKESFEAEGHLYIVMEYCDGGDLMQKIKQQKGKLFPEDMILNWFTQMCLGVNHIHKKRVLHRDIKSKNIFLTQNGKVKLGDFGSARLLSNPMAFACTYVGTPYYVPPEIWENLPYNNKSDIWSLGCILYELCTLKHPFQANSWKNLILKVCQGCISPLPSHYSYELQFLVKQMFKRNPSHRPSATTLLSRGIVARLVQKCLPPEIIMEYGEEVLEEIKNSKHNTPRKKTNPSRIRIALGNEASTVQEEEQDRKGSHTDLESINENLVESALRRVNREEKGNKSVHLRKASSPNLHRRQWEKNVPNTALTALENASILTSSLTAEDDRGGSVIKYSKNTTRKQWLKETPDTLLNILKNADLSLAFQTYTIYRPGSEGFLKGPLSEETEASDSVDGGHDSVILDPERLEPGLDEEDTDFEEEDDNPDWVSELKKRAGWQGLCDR

For assay [14], the target named is PDGFRα(V561D)(h) (human) (UniProt P16234).
Chain of PDGFRα(V561D)(h) (human) (P16234 550-1089 V561D limits assumed): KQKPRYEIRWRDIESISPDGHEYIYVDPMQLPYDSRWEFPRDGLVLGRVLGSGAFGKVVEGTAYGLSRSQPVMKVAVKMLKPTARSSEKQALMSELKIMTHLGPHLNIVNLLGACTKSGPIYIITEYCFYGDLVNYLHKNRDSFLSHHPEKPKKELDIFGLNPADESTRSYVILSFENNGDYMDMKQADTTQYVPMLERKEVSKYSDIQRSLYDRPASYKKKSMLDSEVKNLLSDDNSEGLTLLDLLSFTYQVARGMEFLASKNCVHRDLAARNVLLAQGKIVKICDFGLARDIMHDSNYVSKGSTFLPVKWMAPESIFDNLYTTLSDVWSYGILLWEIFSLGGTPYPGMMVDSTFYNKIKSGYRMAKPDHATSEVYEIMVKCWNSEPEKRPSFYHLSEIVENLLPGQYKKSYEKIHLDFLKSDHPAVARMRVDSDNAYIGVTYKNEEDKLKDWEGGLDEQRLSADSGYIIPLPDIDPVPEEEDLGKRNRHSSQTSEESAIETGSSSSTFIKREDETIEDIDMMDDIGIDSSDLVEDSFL
The target of assay [15] is PKBγ(h) (human) (UniProt Q9Y243).
Chain of PKBγ(h) (human) (Q9Y243 whole entry): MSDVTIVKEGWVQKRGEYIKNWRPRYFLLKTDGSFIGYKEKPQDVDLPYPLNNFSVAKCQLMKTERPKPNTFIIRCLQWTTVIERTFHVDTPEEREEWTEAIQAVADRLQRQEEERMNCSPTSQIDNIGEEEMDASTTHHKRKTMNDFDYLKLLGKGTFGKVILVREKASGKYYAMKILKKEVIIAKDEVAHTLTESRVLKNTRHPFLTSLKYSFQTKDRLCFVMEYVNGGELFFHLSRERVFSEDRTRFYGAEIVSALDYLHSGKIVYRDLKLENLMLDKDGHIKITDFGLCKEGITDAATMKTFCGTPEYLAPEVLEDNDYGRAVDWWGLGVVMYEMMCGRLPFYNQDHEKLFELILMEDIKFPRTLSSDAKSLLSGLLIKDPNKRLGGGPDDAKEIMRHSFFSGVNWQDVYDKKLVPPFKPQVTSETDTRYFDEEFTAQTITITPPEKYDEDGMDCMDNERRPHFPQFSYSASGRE
Assay [16] concerns the target PKCβII(h) (human) (UniProt P05771).
Assay [17] concerns the target PRK2(h) (human) (UniProt Q16513).
Assay [18] deals with Rsk1(h) (human) (UniProt Q15418).
Chain of Rsk1(h) (human) (Q15418 whole entry): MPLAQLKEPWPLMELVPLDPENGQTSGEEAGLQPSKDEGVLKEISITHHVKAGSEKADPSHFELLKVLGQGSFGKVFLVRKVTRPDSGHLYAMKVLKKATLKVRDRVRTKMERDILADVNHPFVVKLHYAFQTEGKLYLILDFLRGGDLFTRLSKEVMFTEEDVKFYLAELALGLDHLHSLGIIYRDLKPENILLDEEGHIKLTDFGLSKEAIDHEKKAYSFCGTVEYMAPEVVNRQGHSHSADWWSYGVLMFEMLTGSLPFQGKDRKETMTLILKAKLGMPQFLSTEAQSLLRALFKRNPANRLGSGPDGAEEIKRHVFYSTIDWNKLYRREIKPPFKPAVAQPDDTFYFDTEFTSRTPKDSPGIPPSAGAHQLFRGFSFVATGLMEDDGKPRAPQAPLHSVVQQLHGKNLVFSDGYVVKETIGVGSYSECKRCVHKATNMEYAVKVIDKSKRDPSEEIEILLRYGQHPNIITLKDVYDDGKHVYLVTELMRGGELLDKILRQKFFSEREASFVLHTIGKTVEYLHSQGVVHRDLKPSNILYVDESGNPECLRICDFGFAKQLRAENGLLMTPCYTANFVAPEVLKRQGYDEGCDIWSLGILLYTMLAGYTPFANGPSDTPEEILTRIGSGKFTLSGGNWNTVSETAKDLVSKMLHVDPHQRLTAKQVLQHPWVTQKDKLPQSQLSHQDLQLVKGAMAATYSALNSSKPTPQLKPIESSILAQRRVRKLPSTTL
In assay [19] the target is SIK(h) (human) (UniProt P57059).
The target in assay [20] is Src(1-530)(h) (human) (UniProt P12931).
The target of assay [21] is T3, ULK2(h) (human) (UniProt Q8IYT8).
T3 sequence (looked up): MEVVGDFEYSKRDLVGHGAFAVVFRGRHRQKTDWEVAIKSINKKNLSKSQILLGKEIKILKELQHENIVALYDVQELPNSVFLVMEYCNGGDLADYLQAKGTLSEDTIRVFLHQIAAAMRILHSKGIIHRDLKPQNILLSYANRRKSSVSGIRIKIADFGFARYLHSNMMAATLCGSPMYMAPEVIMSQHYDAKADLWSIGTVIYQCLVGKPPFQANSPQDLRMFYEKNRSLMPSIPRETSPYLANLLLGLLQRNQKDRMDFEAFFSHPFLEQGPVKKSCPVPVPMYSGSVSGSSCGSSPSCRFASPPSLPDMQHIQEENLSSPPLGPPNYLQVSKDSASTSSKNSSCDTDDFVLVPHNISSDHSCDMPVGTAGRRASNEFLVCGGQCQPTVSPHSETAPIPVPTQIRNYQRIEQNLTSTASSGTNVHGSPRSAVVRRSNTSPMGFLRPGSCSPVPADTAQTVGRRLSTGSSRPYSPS

The target in assay [22] is cSRC(h) (human) (UniProt P12931).
Assay [23] concerns the target mTOR(h) (human) (UniProt P42345).

Chain of mTOR(h) (human) (P42345 1362-2549 limits assumed): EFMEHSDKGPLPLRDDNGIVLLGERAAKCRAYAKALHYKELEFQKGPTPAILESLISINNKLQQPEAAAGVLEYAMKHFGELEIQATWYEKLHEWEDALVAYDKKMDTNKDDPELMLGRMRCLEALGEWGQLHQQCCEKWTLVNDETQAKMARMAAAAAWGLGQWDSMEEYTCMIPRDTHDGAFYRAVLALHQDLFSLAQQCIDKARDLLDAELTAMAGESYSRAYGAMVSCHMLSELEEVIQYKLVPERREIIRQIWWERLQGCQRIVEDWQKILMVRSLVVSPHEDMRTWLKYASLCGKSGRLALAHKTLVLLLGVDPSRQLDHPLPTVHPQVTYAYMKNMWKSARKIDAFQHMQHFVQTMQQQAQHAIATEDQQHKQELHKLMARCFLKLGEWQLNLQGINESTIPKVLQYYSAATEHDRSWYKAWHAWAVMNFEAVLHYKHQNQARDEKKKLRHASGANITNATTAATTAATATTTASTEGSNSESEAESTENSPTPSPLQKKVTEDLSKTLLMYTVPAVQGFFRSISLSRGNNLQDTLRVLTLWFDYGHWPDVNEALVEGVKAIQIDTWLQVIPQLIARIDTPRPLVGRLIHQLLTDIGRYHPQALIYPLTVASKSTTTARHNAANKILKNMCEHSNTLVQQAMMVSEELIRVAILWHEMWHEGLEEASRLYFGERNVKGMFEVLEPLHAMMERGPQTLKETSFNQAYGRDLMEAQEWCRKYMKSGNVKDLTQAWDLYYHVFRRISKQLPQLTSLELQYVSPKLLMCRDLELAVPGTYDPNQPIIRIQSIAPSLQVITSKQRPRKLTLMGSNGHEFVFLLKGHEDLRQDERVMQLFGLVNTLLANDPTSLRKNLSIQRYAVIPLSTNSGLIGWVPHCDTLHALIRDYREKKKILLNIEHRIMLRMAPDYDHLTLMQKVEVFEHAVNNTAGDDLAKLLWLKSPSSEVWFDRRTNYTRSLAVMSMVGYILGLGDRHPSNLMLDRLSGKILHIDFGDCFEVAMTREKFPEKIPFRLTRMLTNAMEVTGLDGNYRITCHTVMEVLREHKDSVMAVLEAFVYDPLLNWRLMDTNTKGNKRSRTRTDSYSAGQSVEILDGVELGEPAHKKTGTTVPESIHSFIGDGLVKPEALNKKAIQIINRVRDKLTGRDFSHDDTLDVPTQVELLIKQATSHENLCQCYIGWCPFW
Chain of Abl(Q252H)(h) (human) (P00519 27-1130 Q252H limits assumed): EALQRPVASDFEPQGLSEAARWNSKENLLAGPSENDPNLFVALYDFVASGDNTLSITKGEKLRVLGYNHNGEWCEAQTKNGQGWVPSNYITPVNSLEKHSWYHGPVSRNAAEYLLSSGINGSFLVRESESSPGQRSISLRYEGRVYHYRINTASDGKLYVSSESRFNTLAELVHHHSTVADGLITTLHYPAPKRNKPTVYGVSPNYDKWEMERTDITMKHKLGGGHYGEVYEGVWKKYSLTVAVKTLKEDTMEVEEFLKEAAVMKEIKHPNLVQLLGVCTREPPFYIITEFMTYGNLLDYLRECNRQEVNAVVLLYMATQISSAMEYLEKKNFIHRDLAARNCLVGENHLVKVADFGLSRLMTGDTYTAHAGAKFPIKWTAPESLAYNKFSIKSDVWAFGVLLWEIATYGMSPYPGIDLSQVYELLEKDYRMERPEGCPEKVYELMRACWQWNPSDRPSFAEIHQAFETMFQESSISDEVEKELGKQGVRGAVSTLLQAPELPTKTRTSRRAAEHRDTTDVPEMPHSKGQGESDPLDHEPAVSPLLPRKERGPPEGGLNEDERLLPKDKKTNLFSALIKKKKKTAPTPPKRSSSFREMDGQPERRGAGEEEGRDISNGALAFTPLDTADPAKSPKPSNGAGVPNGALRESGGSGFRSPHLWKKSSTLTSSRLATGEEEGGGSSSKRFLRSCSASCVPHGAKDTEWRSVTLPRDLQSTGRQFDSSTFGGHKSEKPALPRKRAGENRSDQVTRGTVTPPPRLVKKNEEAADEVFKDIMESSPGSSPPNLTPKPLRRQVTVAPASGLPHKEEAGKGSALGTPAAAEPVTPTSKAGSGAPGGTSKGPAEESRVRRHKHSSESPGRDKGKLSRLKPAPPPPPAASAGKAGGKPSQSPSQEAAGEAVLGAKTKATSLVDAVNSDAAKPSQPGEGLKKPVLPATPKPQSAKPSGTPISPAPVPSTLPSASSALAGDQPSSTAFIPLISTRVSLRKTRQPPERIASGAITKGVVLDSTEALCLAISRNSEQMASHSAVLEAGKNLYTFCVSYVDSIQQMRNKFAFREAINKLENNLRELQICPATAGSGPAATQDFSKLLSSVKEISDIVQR

As for MMI-0400 (peptide), the % activity at 100 µM amounted to 87% in assay [1]; 98% in [2]; 235% in assay [3]; 16% in assay [4]; 22% in assay [5]; 91% in assay [6]. Also, the % activity at 100 µM was found to be 70% in assay [7]; 5% in [8]; 7% in assay [9]; 68% in [10]; 93% in [11]; 33% in assay [12]. Further, the % activity at 100 µM in assay [13] came to 85%; in assay [14], 100%; in assay [15], 41%; in [16] it was 75%; in assay [17], 27%; in assay [18] it was 54%. In addition, the % activity at 100 µM in assay [19] is 68%; in assay [20], 19%; in [21], 131%; in assay [22], 14%; in assay [23], 93%.
For the substance MMI-0500 (peptide), the % activity at 100 µM in [1] turned out to be 35%; in assay [2], 40%; in assay [3], 6%; in assay [4], 2%; in [5], 15%; in [6], 47%. Further, the % activity at 100 µM in assay [7] was determined as 171%; in [8] it was 9%; in assay [9], 9%; in assay [10] it was 150%; in [11], 27%; in [12] it was 2%. Moreover, the % activity at 100 µM in [13] was determined as 20%; in assay [14] it was 146%; in assay [15] it was 20%; in assay [16], 3%; in assay [17], 7%; in [18] it was 34%. Besides, the % activity at 100 µM was 40% in assay [19]; 21% in [20]; 124% in assay [21]; 30% in assay [22]; 135% in assay [23].
As for MMI-0300 (peptide), the % activity at 100 µM in assay [1] is 71%; in assay [2], 82%; in assay [3], 91%; in [4], 49%; in assay [5] it was 25%; in assay [6], 74%. In addition, the % activity at 100 µM in assay [7] is 89%; in assay [8], 5%; in assay [9], 3%; in assay [10], 125%; in assay [11] it was 93%; in assay [12], 53%. Besides, the % activity at 100 µM in assay [13] came to 92%; in assay [14], 82%; in [15] it was 20%; in assay [16], 82%; in [17], 33%; in assay [18] it was 46%. Besides, the % activity at 100 µM worked out at 66% in assay [19]; 23% in assay [20]; 122% in assay [21]; 26% in [22]; 91% in assay [23].
